According to patent US20210147572A1, “ANTIBODIES AND METHODS OF USE THEREOF” (AbeXXa Biologics, Inc., priority 2017, published 2021):

Columns and labels:
[1] = molecular target: T1, HLA-E molecules expressed in PDX lung tumor tissue (Homo sapiens, UniProt P13747); experiment: LC/MS/MS validation of peptides eluted from HLA-E of PDX lung tumor tissue; details: PDX model LU5139, HLA-E affinity column 4D12
T1 construct: tissue Crown Biosciences PDX model LU5139; host or cells: patient-derived xenograft lung tumour tissue
Procedure: FIG. 6 exemplifies a validation strategy used for cancer specific HLA-E-peptide targets. 1) Snap-frozen tumor tissue isolated from patient-derived xenograft (PDX) models, patient biopsies or freshly isolated hematological cancer cells are stored frozen in liquid nitrogen. 2) Sample of material is isolated and resuspended in 5 to 10 ml of lysis buffer and homogenized for 10 seconds on ice. After lhr incubation on ice, the sample is centrifuged for 20 min at 40,000 g. 3) An affinity column is prepared using antibody 4D12 or another antibody to HLA-E. The purified anti-HLA-E antibodies are coupled to a CN-Br-activated sepharose beads. The clarified supernatant is then applied to the affinity column. The column is washed with PBS, followed by a second wash with water and the sample eluted with 0.1M glycine pH 3.0. 4) Collected sample is immediately neutralized with addition of NH4HCO3. […]
PDX lung tumor tissue was purchased from Crown Biosciences and used for extraction of HLA-E-peptide complexes. […] An aliquot of sample supernatant was removed and protein concentration was determined by BCA assay. […]
Peptide mixture samples underwent solid-phase extraction cleanup with an Oasis HLB elution plate (Waters) and the resulting samples were analyzed by LC/MS/MS, using an Orbitrap Fusion Lumos mass spectrometer (Thermo Electron) coupled to an UltiMate™ 3000 RSLC-Nano liquid chromatography system (Dionex). […]

HLA-E*0103 = HLA-E*0103 (Homo sapiens, UniProt P13747); experiment: HLA-E*0103 peptide binding and refolding into monomer; type: biochemical
[2] = molecular target: T2, HLA-E*0103 extracellular domain with beta-2-microglobulin (recombinant, before peptide loading) (human); experiment: peptide binding and refold into monomer complex
[3] = molecular target: T2, HLA-E*0103 extracellular domain with …; experiment: in vitro refold, Superdex 75 size exclusion

GLADKVYFL
Peptide detected in lung PDX tissue by LC/MS/MS [1]: isolated from HLA-E molecules expressed in PDX lung tumor tissue

YLLPAIVHI [RNA Helicase p68 peptide]
HLA-E*0103 peptide binding, refold into stable monomer complexes (HLA-E*0103): successfully refold HLA-E*0103/peptide into stable monomer complexes

B1: peptide YLLPAIVHI (RNA Helicase p68) (peptide)
peptide: YLLPAIVHI
binding result [2]: binds

B2: peptide GLADKVYFL (CAD protein) (peptide)
peptide: GLADKVYFL
binding result [3]: binds
